Test results from US20170101470A1 (PROTHENA BIOSCIENCES, published 2017).

T1: recombinant hMCAM-His (human, UniProt P43121 24-559)
T1 chain: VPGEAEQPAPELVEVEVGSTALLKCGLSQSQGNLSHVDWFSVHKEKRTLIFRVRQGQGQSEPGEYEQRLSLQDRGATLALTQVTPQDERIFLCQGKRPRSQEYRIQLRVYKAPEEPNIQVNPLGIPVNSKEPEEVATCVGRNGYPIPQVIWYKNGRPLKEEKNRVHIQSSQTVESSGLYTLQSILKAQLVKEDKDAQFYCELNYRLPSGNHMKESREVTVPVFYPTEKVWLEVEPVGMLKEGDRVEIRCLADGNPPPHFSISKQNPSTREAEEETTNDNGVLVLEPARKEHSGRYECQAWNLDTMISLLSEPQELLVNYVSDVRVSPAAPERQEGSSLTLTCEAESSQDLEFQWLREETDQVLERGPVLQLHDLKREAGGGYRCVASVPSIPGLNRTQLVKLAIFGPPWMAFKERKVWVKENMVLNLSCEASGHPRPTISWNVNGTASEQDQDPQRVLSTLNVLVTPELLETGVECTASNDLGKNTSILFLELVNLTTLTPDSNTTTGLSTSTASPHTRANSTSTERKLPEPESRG

T2: human MCAM-Fc protein (extracellular domain of human MCAM fused to human IgG) (human, UniProt P43121 24-559)
T2 construct: also called hMCAM-Fc; MCAMhFc
T2 chain: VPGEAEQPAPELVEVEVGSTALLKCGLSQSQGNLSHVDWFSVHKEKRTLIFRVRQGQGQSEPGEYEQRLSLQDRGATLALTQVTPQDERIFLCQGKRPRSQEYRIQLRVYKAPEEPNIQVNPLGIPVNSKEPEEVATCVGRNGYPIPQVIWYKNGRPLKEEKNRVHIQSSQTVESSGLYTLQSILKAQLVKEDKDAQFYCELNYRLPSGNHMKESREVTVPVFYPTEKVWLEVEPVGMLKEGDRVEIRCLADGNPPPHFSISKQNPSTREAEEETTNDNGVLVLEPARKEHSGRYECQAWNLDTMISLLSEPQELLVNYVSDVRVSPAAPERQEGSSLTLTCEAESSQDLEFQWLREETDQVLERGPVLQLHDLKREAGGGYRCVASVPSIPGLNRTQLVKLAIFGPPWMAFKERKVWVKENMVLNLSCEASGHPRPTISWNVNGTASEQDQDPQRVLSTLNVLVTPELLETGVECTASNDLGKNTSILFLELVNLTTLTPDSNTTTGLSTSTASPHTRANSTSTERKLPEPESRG

T3: human MCAM domain 3 hFc construct (human, UniProt P43121 244-321)
T3 construct: One of the 'various MCAMhFc domains' loaded on the ForteBio sensors; also called MCAMhFc domain 3
T3 sequence: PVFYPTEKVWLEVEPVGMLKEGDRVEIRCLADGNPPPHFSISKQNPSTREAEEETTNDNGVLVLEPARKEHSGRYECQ

T4: human MCAM expressed on CHO cells (full length human MCAM gene) (human, UniProt P43121 24-646)
T4 construct: also called hMCAM expressing CHO cells; CD146
T4 chain: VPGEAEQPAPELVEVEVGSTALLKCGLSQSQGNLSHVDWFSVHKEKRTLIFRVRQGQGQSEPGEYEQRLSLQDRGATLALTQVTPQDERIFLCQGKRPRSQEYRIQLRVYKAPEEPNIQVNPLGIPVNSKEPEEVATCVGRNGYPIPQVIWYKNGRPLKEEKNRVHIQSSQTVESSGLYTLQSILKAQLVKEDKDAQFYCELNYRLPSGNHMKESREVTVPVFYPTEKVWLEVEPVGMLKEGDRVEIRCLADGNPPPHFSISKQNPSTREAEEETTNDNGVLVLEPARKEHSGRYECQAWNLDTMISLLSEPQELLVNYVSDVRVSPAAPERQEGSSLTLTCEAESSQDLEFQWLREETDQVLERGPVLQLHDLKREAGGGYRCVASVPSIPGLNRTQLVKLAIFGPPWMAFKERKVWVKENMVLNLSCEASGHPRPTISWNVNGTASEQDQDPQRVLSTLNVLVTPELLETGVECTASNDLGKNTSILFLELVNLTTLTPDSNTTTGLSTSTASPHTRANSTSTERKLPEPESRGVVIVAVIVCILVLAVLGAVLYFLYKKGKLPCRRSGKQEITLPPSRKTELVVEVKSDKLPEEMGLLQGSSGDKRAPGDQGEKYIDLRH

T5: human MCAM domains 1 and 2 hFc construct (human, UniProt P43121 19-242)
T5 construct: One of the 'various MCAMhFc domains' loaded on the ForteBio sensors
T5 sequence: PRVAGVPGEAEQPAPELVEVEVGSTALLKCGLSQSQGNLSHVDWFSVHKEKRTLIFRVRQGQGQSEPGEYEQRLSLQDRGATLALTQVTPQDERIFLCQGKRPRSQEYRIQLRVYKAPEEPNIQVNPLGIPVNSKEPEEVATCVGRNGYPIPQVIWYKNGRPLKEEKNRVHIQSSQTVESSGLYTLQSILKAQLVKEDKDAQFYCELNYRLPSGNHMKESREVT

T6: human MCAM domain 1 hFc construct (human, UniProt P43121 19-129)
T6 construct: One of the 'various MCAMhFc domains' loaded on the ForteBio sensors; also called MCAMhFc domain 1
T6 sequence: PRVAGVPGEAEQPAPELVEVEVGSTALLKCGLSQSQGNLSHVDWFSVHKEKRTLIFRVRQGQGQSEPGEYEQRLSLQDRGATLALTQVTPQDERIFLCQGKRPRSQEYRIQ

T7: human MCAM domain 2 hFc construct (human, UniProt P43121 139-242)
T7 construct: One of the 'various MCAMhFc domains' loaded on the ForteBio sensors; also called MCAMhFc domain 2
T7 sequence: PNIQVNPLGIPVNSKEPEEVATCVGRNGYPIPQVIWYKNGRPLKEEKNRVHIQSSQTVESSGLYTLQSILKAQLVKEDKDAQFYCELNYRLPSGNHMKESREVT


Assays:
[1] = molecular target: T1, recombinant hMCAM-His; experiment: ForteBio Octet Red, antibody on anti-human Fc sensors, hMCAMHis analyte, 1:1 fit; affinity relative to rodent 2120, Expt. #1
Procedure: The affinities were measured using the ForteBio Octet Red. Anti-human Fc sensors were used to capture the humanized antibodies, and several concentrations of hMCAMHis analyte were used to determine the affinity using a 1:1 fitting model.

[2] = molecular target: T1, recombinant hMCAM-His; experiment: competitive ELISA on coated hMCAM-His, competitor biotinylated rodent or chimeric 2120; IC50 relative to rodent 2120, Expt. #1
Procedure: The apparent affinities of the humanized antibodies were compared to the parental rodent or chimeric antibody in a competitive ELISA according to the following protocol: ELISA plates were coated with recombinant hMCAM-His, and blocked with casein buffer to prevent non-specific binding. Biotinylated rodent or chimeric antibody was added at a subsaturating concentration, in the presence or absence of 3× increasing concentrations of unlabeled competitor (humanized antibody, rodent, or chimeric). After washing to remove unbound antibody, streptavidin HRP was added to allow detection of the biotinylated antibody. The ELISA was developed with TMB substrate and the OD450 was measured. The IC50 of the unlabeled competitor was determined using the GraphPad Prism5 software.

[3] = molecular target: T2, human MCAM-Fc protein (extracellular …); experiment: summary sentence of Example 3 (ForteBio, MCAMhFc)
Excerpt: (§1) The following protocol was used: ForteBio anti-human IgG Fc biosensors were used to immobilize various MCAMhFc domains including full length MCAMhFc protein on to biosensor surface. […] After loading these samples into a black 96 well plate, the Octet Red was programmed as follows: 60 seconds for baseline #1; 180 seconds for loading various domains; 60 seconds for baseline #2; 180 seconds for association of antibody to domain; and 240 seconds for dissociation of antibody from domain.
(§2) Reagents and Supplies Used: [0358] 1. MCAMhFc final concentration @ 5 ug/ml [0359] […] 3. ForteBio anti-human IgG Fc Capture (AHC) biosensors for kinetics experiments, cat#18-5060 [0361] 4. Block 96 well plate from Greiner Bio-one, cat#655209 [0362] 5. ForteBio Octet Red machine [0363] 6. Fresh tissue culture medium, DMEM with 20% FCS, was used as buffer for dilution

[4] = molecular target: T3, human MCAM domain 3 hFc construct; experiment: ForteBio Octet Red, MCAMhFc domains on anti-human IgG Fc sensors, antibody at 5 ug/ml
Excerpt: as §1, §2

[5] = molecular target: T4, human MCAM expressed on CHO cells (full …); experiment: flow cytometry: blocking of recombinant human laminin 411 (20 ug/ml) binding to CHO cells expressing human MCAM
Procedure: The 87 independent mouse fusion clones and 26 independent rat fusion clones described in Example 1 above as being capable of (i) binding to human MCAM, and (ii) blocking the interaction between human MCAM and the α-4 chain of laminin were further characterized as follows. First, IC50 quantitation for the ability of the monoclonal antibody to block the binding of human MCAM to the α-4 chain of laminin was determined as follows. CHO cells expressing human MCAM were incubated with an anti-human MCAM antibody (at various concentrations) for 30 minutes at 4 degrees Celsius. […] Unbound laminin was then washed away, and the laminin bound to the surface of the cells was detected with fluorescently labeled anti-laminin antibodies. After washing, the amount of laminin bound to the surface was detected by flow cytometry, and IC50s were calculated based on the mean fluorescent intensity.
Amino acid and nucleic acid sequences of the heavy and light chains of these antibodies, and their hypervariable regions, are provided in SEQ ID NOs:29-92. […] As such, each of these specific monoclonal antibodies was very capable of binding to human MCAM and inhibiting the interaction of cell-expressed human MCAM with its α-4 laminin binding ligand.

[6] = molecular target: T5, human MCAM domains 1 and 2 hFc construct; experiment: ForteBio Octet Red, MCAMhFc domains on anti-human IgG Fc sensors
Excerpt: as §1, §2

[7] = molecular target: T6, human MCAM domain 1 hFc construct; experiment: as above
Excerpt: as §1, §2

[8] = molecular target: T7, human MCAM domain 2 hFc construct; experiment: as above
Excerpt: as §1, §2

| Binder | Fold over rodent (Forte) [1] [fold] | Fold over rodent (ELISA) [2] [fold] | binding result [3] | binding result [4] | IC50 [5] [µg/mL] | binding result [6] | binding result [7] | binding result [8] |
| --- | --- | --- | --- | --- | --- | --- | --- | --- |
| humanized anti-MCAM antibody h2120_VH3 + h2120_VL3 (antibody, V domains shown, Human IgG1 / human kappa; also called h2120VH3VL3; N-S deamidate VH + conservative VL) VH: QVTLKESGPVLVKPTETLTLTCTVSGFSLTSSGVSWVRQPPGKALEWIAAISSGGTTYYNSAFKSRLTISRDTSKSQVVLTMTNMDPVDTATYYCARRYGYGWYFDFWGQGTLVTVSS VL: DIQMTQSPSSLSASVGDRVTINCKASQNIYNSLAWYQQKPGKAPKVLIFNANSLQTGIPSRFSGSGSGTDFTLTISSLQPEDFATYYCQQFYSGYTFGQGTKLEIK | 16.1 | 3.47 |  |  |  |  |  |  |
| mouse anti-human MCAM monoclonal antibody clone 1415.1.1 (antibody, V domains shown, Mouse hybridoma antibody) VH: QVQLQQPGAELVQPGAPVKLSCKASGYIFTSYWMNWVKQRPGRGLEWIGRIDPSDSKIHYNQKFKDKATLTVDRSSSTAYIQLGSLTSEDSAVYYCAKEGGLRRGDYAMDYWGQGTSVTVSS VL: DIVMTQSPATLSVTPGDRVSLSCRASQSISDYLHWYQQKSHESPRLLIKYASQSISGIPSRFSGSGSGSDFTLSINSVEPEDVGVYYCQNGHNFPRTFGGGTKLEIK |  |  | binds | binds | 0.307 | no binding (tested: 5 ug/ml) | no binding (tested: 5 ug/ml) | no binding (tested: 5 ug/ml) |
